Data taken from patent US20260242419A1, “A CYCLIC PEPTIDE FOR TRAPPING INTERLEUKIN-1 BETA” (Merck Sharp & Dohme LLC, priority 2023, published 2026).
Starred links: 1 amine or outer side, 2 acyl side, 3 side chain; linkers in the order of their positions; H or OH if unused. Non-standard residues stand in square brackets, D forms with d. PyrimAla4AcPip = (2S)-3-[2-(4-acetylpiperazin-1-yl)pyrimidin-5-yl]-2-amino-propanoic acid, CC(=O)N1CCN(c2ncc(C[C@H](N[*:1])C(=O)[*:2])cn2)CC1; 3AzaPhe4AcPip = (2S)-3-[6-(4-acetylpiperazin-1-yl)-3-pyridyl]-2-amino-propanoic acid, CC(=O)N1CCN(c2ccc(C[C@H](N[*:1])C(=O)[*:2])cn2)CC1; Phe(4-(5-CO2H-2-pyrimidyl)) = N[C@@H](Cc1ccc(-c2ncc(C(=O)O)cn2)cc1)C(=O)O; Phe(4-(4-Ac-piperazinyl)) = CC(=O)N1CCN(c2ccc(C[C@H](N)C(=O)O)cc2)CC1; dPro(4R-(4-pyridylmethyl)) = O=C(O)[C@H]1C[C@@H](Cc2ccncc2)CN1; Trp(βS-Me,4-F) = C[C@@H](c1c[nH]c2cccc(F)c12)[C@H](N)C(=O)O; Bip(4'-COOH) = N[C@@H](Cc1ccc(-c2ccc(C(=O)O)cc2)cc1)C(=O)O; dPro(4R-Bzl(4-F)) = O=C(O)[C@H]1C[C@@H](Cc2ccc(F)cc2)CN1; Ala(pyrimidin-5-yl) = N[C@@H](Cc1cncnc1)C(=O)O; Phe(4-COOH) = N[C@@H](Cc1ccc(C(=O)O)cc1)C(=O)O; Pro(cis-4-F) = O=C(O)[C@@H]1C[C@H](F)CN1; 2Pal = N[C@@H](Cc1ccccn1)C(=O)O; 4Pal = N[C@@H](Cc1ccncc1)C(=O)O; Dab = NCC[C@H](N)C(=O)O; Aib = CC(C)(N)C(=O)O

B1: SEQ ID NO: 35 (peptide)
peptide: cyclo([Bip(4'-COOH)][4Pal][Phe(4-COOH)]G[Pro(cis-4-F)][Trp(βS-Me,4-F)][Aib]EW[Aib]FQRG[dPro(4R-Bzl(4-F))])
SMILES: C[C@@H](c1c[nH]c2cccc(F)c12)[C@@H]1NC(=O)[C@@H]2C[C@H](F)CN2C(=O)CNC(=O)[C@H](Cc2ccc(C(=O)O)cc2)NC(=O)[C@H](Cc2ccncc2)NC(=O)[C@H](Cc2ccc(-c3ccc(C(=O)O)cc3)cc2)NC(=O)[C@H]2C[C@@H](Cc3ccc(F)cc3)CN2C(=O)CNC(=O)[C@H](CCCNC(=N)N)NC(=O)[C@H](CCC(N)=O)NC(=O)[C@H](Cc2ccccc2)NC(=O)C(C)(C)NC(=O)[C@H](Cc2c[nH]c3ccccc23)NC(=O)[C@H](CCC(=O)O)NC(=O)C(C)(C)NC1=O
B2: SEQ ID NO: 39 (peptide)
peptide: cyclo([3AzaPhe4AcPip][4Pal][Phe(4-COOH)]G[Pro(cis-4-F)][Trp(βS-Me,4-F)][Aib]EW[Aib][Ala(pyrimidin-5-yl)]Q[Dab]G[dPro(4R-Bzl(4-F))])
SMILES: CC(=O)N1CCN(c2ccc(C[C@@H]3NC(=O)[C@H]4C[C@@H](Cc5ccc(F)cc5)CN4C(=O)CNC(=O)[C@H](CCN)NC(=O)[C@H](CCC(N)=O)NC(=O)[C@H](Cc4cncnc4)NC(=O)C(C)(C)NC(=O)[C@H](Cc4c[nH]c5ccccc45)NC(=O)[C@H](CCC(=O)O)NC(=O)C(C)(C)NC(=O)[C@H]([C@@H](C)c4c[nH]c5cccc(F)c45)NC(=O)[C@@H]4C[C@H](F)CN4C(=O)CNC(=O)[C@H](Cc4ccc(C(=O)O)cc4)NC(=O)[C@H](Cc4ccncc4)NC3=O)cn2)CC1
B3: SEQ ID NO: 41 (peptide)
peptide: cyclo([Bip(4'-COOH)][4Pal][Phe(4-COOH)]G[Pro(cis-4-F)][Trp(βS-Me,4-F)][Aib]AW[Aib][Ala(pyrimidin-5-yl)]Q[Dab]G[dPro(4R-(4-pyridylmethyl))])
SMILES: C[C@@H]1NC(=O)C(C)(C)NC(=O)[C@H]([C@@H](C)c2c[nH]c3cccc(F)c23)NC(=O)[C@@H]2C[C@H](F)CN2C(=O)CNC(=O)[C@H](Cc2ccc(C(=O)O)cc2)NC(=O)[C@H](Cc2ccncc2)NC(=O)[C@H](Cc2ccc(-c3ccc(C(=O)O)cc3)cc2)NC(=O)[C@H]2C[C@@H](Cc3ccncc3)CN2C(=O)CNC(=O)[C@H](CCN)NC(=O)[C@H](CCC(N)=O)NC(=O)[C@H](Cc2cncnc2)NC(=O)C(C)(C)NC(=O)[C@H](Cc2c[nH]c3ccccc23)NC1=O
B4: SEQ ID NO: 40 (peptide)
peptide: cyclo([PyrimAla4AcPip][4Pal][Phe(4-COOH)]G[Pro(cis-4-F)][Trp(βS-Me,4-F)][Aib]EW[Aib][Ala(pyrimidin-5-yl)]Q[Dab]G[dPro(4R-Bzl(4-F))])
SMILES: CC(=O)N1CCN(c2ncc(C[C@@H]3NC(=O)[C@H]4C[C@@H](Cc5ccc(F)cc5)CN4C(=O)CNC(=O)[C@H](CCN)NC(=O)[C@H](CCC(N)=O)NC(=O)[C@H](Cc4cncnc4)NC(=O)C(C)(C)NC(=O)[C@H](Cc4c[nH]c5ccccc45)NC(=O)[C@H](CCC(=O)O)NC(=O)C(C)(C)NC(=O)[C@H]([C@@H](C)c4c[nH]c5cccc(F)c45)NC(=O)[C@@H]4C[C@H](F)CN4C(=O)CNC(=O)[C@H](Cc4ccc(C(=O)O)cc4)NC(=O)[C@H](Cc4ccncc4)NC3=O)cn2)CC1
B5: SEQ ID NO: 4 (peptide)
peptide: cyclo([Bip(4'-COOH)][4Pal][Phe(4-COOH)]G[Pro(cis-4-F)][Trp(βS-Me,4-F)][Aib]EW[Aib][Ala(pyrimidin-5-yl)]Q[Dab]G[dPro(4R-Bzl(4-F))])
SMILES: C[C@@H](c1c[nH]c2cccc(F)c12)[C@@H]1NC(=O)[C@@H]2C[C@H](F)CN2C(=O)CNC(=O)[C@H](Cc2ccc(C(=O)O)cc2)NC(=O)[C@H](Cc2ccncc2)NC(=O)[C@H](Cc2ccc(-c3ccc(C(=O)O)cc3)cc2)NC(=O)[C@H]2C[C@@H](Cc3ccc(F)cc3)CN2C(=O)CNC(=O)[C@H](CCN)NC(=O)[C@H](CCC(N)=O)NC(=O)[C@H](Cc2cncnc2)NC(=O)C(C)(C)NC(=O)[C@H](Cc2c[nH]c3ccccc23)NC(=O)[C@H](CCC(=O)O)NC(=O)C(C)(C)NC1=O
B6: SEQ ID NO: 36 (peptide)
peptide: cyclo([Bip(4'-COOH)][4Pal][Phe(4-COOH)]G[Pro(cis-4-F)][Trp(βS-Me,4-F)][Aib]EW[Aib][2Pal]QSG[dPro(4R-Bzl(4-F))])
SMILES: C[C@@H](c1c[nH]c2cccc(F)c12)[C@@H]1NC(=O)[C@@H]2C[C@H](F)CN2C(=O)CNC(=O)[C@H](Cc2ccc(C(=O)O)cc2)NC(=O)[C@H](Cc2ccncc2)NC(=O)[C@H](Cc2ccc(-c3ccc(C(=O)O)cc3)cc2)NC(=O)[C@H]2C[C@@H](Cc3ccc(F)cc3)CN2C(=O)CNC(=O)[C@H](CO)NC(=O)[C@H](CCC(N)=O)NC(=O)[C@H](Cc2ccccn2)NC(=O)C(C)(C)NC(=O)[C@H](Cc2c[nH]c3ccccc23)NC(=O)[C@H](CCC(=O)O)NC(=O)C(C)(C)NC1=O
B7: SEQ ID NO: 38 (peptide)
peptide: cyclo([Phe(4-(5-CO2H-2-pyrimidyl))][4Pal][Phe(4-COOH)]G[Pro(cis-4-F)][Trp(βS-Me,4-F)][Aib]EW[Aib][Ala(pyrimidin-5-yl)]Q[Dab]G[dPro(4R-Bzl(4-F))])
SMILES: C[C@@H](c1c[nH]c2cccc(F)c12)[C@@H]1NC(=O)[C@@H]2C[C@H](F)CN2C(=O)CNC(=O)[C@H](Cc2ccc(C(=O)O)cc2)NC(=O)[C@H](Cc2ccncc2)NC(=O)[C@H](Cc2ccc(-c3ncc(C(=O)O)cn3)cc2)NC(=O)[C@H]2C[C@@H](Cc3ccc(F)cc3)CN2C(=O)CNC(=O)[C@H](CCN)NC(=O)[C@H](CCC(N)=O)NC(=O)[C@H](Cc2cncnc2)NC(=O)C(C)(C)NC(=O)[C@H](Cc2c[nH]c3ccccc23)NC(=O)[C@H](CCC(=O)O)NC(=O)C(C)(C)NC1=O
B8: SEQ ID NO: 37 (peptide)
peptide: cyclo([Phe(4-(4-Ac-piperazinyl))][4Pal][Phe(4-COOH)]G[Pro(cis-4-F)][Trp(βS-Me,4-F)][Aib]EW[Aib][Ala(pyrimidin-5-yl)]Q[Dab]G[dPro(4R-Bzl(4-F))])
SMILES: CC(=O)N1CCN(c2ccc(C[C@@H]3NC(=O)[C@H]4C[C@@H](Cc5ccc(F)cc5)CN4C(=O)CNC(=O)[C@H](CCN)NC(=O)[C@H](CCC(N)=O)NC(=O)[C@H](Cc4cncnc4)NC(=O)C(C)(C)NC(=O)[C@H](Cc4c[nH]c5ccccc45)NC(=O)[C@H](CCC(=O)O)NC(=O)C(C)(C)NC(=O)[C@H]([C@@H](C)c4c[nH]c5cccc(F)c45)NC(=O)[C@@H]4C[C@H](F)CN4C(=O)CNC(=O)[C@H](Cc4ccc(C(=O)O)cc4)NC(=O)[C@H](Cc4ccncc4)NC3=O)cc2)CC1

target: Recombinant human IL-1β (BioLegend 579404) (human, UniProt P01584 117-269); test: cell-based or functional assay

| MRC5 IC50 | Binder |
| --- | --- |
| 0.049 nM | B1 |
| 0.063 nM | B2 |
| 0.029 nM | B3 |
| 0.048 nM | B4 |
| 0.031 nM | B5 |
| 0.021 nM | cyclo([Bip(4'-COOH)][4Pal][Phe(4-COOH)]G[Pro(cis-4-F)][Trp(βS-Me,4-F)][Aib]SW[Aib][Ala(pyrimidin-5-yl)]Q[Dab]G[dPro(4R-(4-pyridylmethyl))]) [SEQ ID NO: 42] |
| 0.054 nM | B6 |
| 0.041 nM | B7 |
| 0.033 nM | B8 |
